Results reported in patent publication US20260209318A1 (NATIONAL UNIVERSITY OF SINGAPORE, published 2026).

Target: BQ.1.1 spike protein (SARS-CoV-2 variant BQ.1.1, UniProt P0DTC2 14-1273)
Test: cell-based or functional assay

Binder	IC50 (pVNT)	concentration required to effectively neutralize (pVNT)	times less than the concentration of E7
Ab23 (B10.1) (antibody, V domains shown) VH: QVQLVQSGAEVKKPGSAVKVSCKASGGTFSSYPITWVRQAPGQGLEWVGRAIPILGITSTAQKFQGRVTIIADKSTSTAYMELSRLRSEDTAVYYCARDFHPRYQDCDSTSCYDQWEPRMDVWGQGTTVTVSS VL: not shown	≤ 550 ng/ml		
Ab22 (C9.1) (antibody, V domains shown) VH: QVQLVQSGAEVKKPGSSVKVSCKASGGTFSSYGISWVRQAPGQGLEWMGRIIPSLSITNSAEKFQGRVTITADKSTSTAYMELSRLRSEDTALYYCARDFHPRYEFCDSTSCYDEWEPRMDVWGQGTTVTVSS VL: not shown	≤ 550 ng/ml		
Ab25 (H10.2) (antibody, V domains shown) VH: QVQLVQSGAEVKKPGSSVKVSCKASRGTFSNYAISWVRQAPGQGLEWMGRIIPSLSITNSAEKFQGRVTMTADKSTSTVYMELSRLRSEDTAVYYCARDFHPRYEYCSSTSCYDEWEPRMDVWGQGTTVTVSS VL: not shown	≤ 550 ng/ml		
Ab11 (D4) (antibody, V domains shown) VH: QVQLQESGPRLVKPSGTLSLSCAVSGGPFSNTNWWSWIRQTPGKGLEWIGEINDSGNTVYNPALKSRVTMSVDKSKKQFSLNLHSLTAADTAVYFCARVWGHFDYWGQGVRVTVSS VL: DIQMTQSPSSLYASVADRVTITCRASQGISNSLAWYQQQPGKAPQLLLYAASTLESGVPSRFSGSGSGTDFTLTISSLQPEDFATYYCQQYYSLRTFGGGTKVEIK	≤ 550 ng/ml		
Ab4 (G7.2) (antibody, V domains shown) VH: QVQLVQSGAEVKKPGSSVKVSCEASGGTFSTYAISWVRQAPGQGLEWMGRIIPIFGIANYAQKFQGRVTITADKSTSTAYMEVSSLRSEDTAVYYCATTFYDHSSTYRTHSMDVWGQGTTVTVSS VL: DIQMTQSPSSLSASVGDRVTITCRASQSISNYLNWYQQRPGKAPKLLIYAASGLQSGVPSRFSGSGSGTNFTLTISTLHPEDFATYYCQQTHSTPRAFGGGTKVEIK	≤ 300 ng/ml	48.4 ng/ml	~11 times
Ab9 (C68) (antibody, V domains shown) VH: QVQLVQSGAEVKKPGASVKVSCKISGYTLTDFSIHWVRQAPGKGLEWMAGFDPEHRETIFAQKFQGRVAMTEATSTDTAYMELSSLRSDDTAVYYCATTGDFDSWRGYYLWGQGTLVTVSA VL: DIQLTQSPSSVSASVGDSVTITCRASQGISRWLAWYQQKPGKAPRLLIYSASTLQSGVPSRFSGSGSGTDFTLTISSLQPDDFATYYCQHTNNFPFSFGPGTKVDIK	≤ 550 ng/ml		
Ab3 (C2.2) (antibody, V domains shown) VH: QVQLVQSGAEVKKPGSSVRVSCEASGDTFSRYAISWVRQAPGQGLEWMGRIIPMFGMANSAQKFQARVTISADKSTSTAYMEVSSLRSEDTAVYYCATDTFYPNDGVHRMEYWGQGALVIVSS VL: DIQMTQSPSSLSASVGDRVTITCRASQTISNYLNWYQQKPGKAPNLLIYGTSILQSGVPSRFSGSGSGTDFTLTISSLQPEDFATYYCQQSHSAPRTFGPGTKVDIK	≤ 300 ng/ml	271 ng/ml	~2 times
Ab14 (F9) (antibody, V domains shown) VH: EVQLVESGGGLVQPGGSLRLSCATSGFTFDDFAMHWVRQGPGKGLEWVSGISWNSGKIAYTDSVKGRFSISRDNAKNSLYLQMNSLRPEDTALYYCTKDHAPSAILGDILTGFDPWGQGTLVT VL: DIQMTQSPVSLSASVGDRVTITCRASQSISVYLNWYQQKPGKAPKLLMYAASILQSGVPSRFSGSGSATDFTLTITSLQPEDFATYFCQQSFTMPPTFGQGTNLEIK	≤ 550 ng/ml		
Ab7 (G1) (antibody, V domains shown) VH: EVQLVESGGGLVKPGGSLRLSCAASGFTVSTYIINWVRQAPGKGLEWVSSITSESDYMFDADSVRGRFTISRDNAKNLVYLQMNSLRAEDTAVYYCARDQGAYSGYDLSPGGDAFDVWGQGTMVTVSS VL: DIQMTQSPSTLSASVGDRVTITCRASQSISTWLAWYQQKPGKAPKLLIYKASNLESGVPSRFSGSGSGTEFTLTISRLQPDDSATYCCQHYNSYPYTFGQGTKVEIK	≤ 550 ng/ml		
Ab8 (B9) (antibody, V domains shown) VH: EVQLVQSRAEVKKPGESLKISCKGSGYSFTTYWIGWVRQMPGKGLEWMGIIRPGDSDTRYSPSFQGQVTISADKSITTAYLQWSSLKASDTAMYYCAMTYSGDQYDFWGQGTVVTVSS VL: DIQMTQSPSTLSASVGDRVTITCRASQSIHTWLAWYQQTPGKAPKLLIYKASLLESGVPSRFSGSGSGTEFTLTISSLQPGDFATYYCQHYNSYSHTFGQGTKVEIK	≤ 550 ng/ml		
Ab20 (C6.1) (antibody, V domains shown) VH: EVQLVESGGGLVKPGGSLRLSCAASGFAFSTNGMNWVRQVPGKGLEWVSSISSTSEYTYYTESVKGRFTISRDNAKNSLFLQMNSLRAEDTAVYYCVRDRFGYYDVLASSYNVGFFQSWGQGALVTVSS VL: DIQMTQSPSSLSASVGDGVTITCRASQDISNNLAWFQQKPGKAPKCLIYSASSLQSGVPLKFRGSGSGTDFTLSITSLDPEDFATYYCQQYISYPITFGQGTRLDIK	≤ 550 ng/ml		
Ab13 (D10) (antibody, V domains shown) VH: EVQLVESGGGLVQPGRSLRLSCAASGFTFDEYAMHWVRQAPGKGLEWVSGISFNSGSVGYAGAAKGRFTISRDNAKKSLYLEMNSLRDEDTAFYYCAKDRGEHWLVRLFDSWGQGTLVTVSS VL: DIQMTQSPSTLSASVGDRVTITCRPSQSIDRWLAWYQQKPGKAPTLLISAASSLETGVPSRFSGSGSGTEFTLTISSLQPDDFATYYCQQYNGYSMFGPGTKVEIK	≤ 550 ng/ml		
Ab21 (E6.1) (antibody, V domains shown) VH: QVQLVQSGAEVKKPGSSVEVSCKASGGTFSSYAISWVRQAPGQGLEWMGRIIPSLGITNSAENFQGRVTITADKSTSTVYMELSSLRSEDTAVYYCARDFHPLYQSCSSTSCYDEWEPRMDVWGQGTTVTVSS VL: not shown	≤ 550 ng/ml		
Ab6 (K23) (antibody, V domains shown) VH: EVQLVESGGGLVQPGGSLRLSCSASGFTFNNYVMHWVRQAPGKGLEYVSAINSNGGSTYYAGSVKGRFTISRDNSNNTLYLQMSSLRAEDTAVYYCIKDAGYYSSLGVDSWGQGTLVTVSS VL: EIVLTQSPATLSLSPGERATLSCRASQSVGSYLAWFQQKPGQAPRLLIYDASYRATGIPARFSGSGSGTDFTLTISSLEPEDVGIYYCQQRSNWPQTFGGGTKVDIK	≤ 550 ng/ml		
Ab12 (H5) (antibody, V domains shown) VH: EVQLLESGGGLVQPGGSLRLSCAASGFTFSGSDMSWVRQAPGKGLEWVSVIGGSGTYAYYSDSVKGRFTISRDNSKNMLFLQMNSLRAEDTAIYYCAKETGFLWFGELLDSWGQGALVTVSS VL: DIQMTQSPSSLSASVGDRVTITCRASEAISNSLAWYQQRPGKAPRLLLYAAATLESGVPPRFSGSGSGTDFTLTISTLQPEDFATYYCQQYYSPPPRTFGQGTKVEIK	≤ 550 ng/ml		
Ab19 (F5.1) (antibody, V domains shown) VH: EVQLVESGGGLVKPGGSLRLSCAASGFIFSRNGMHWVRQAPGKGLEWVSSIDNDGTYMYYADSVRGRFTVSRDNAKNSLFLQLNSLRAEDTAVYYCARDRFGYYDALTDSYNAGYFDSWGQGTLVTVSS VL: DIQMTQSPSSLSASVGDSVTITCRASQDIYNYLAWFQQKPGKAPKSLIYTASKLESGVPSKFSGSGSGTDFTLTISSLQPEDFATYYCQQYHSSPITFGQGTRVEIK	≤ 550 ng/ml		
